Reference: patent US20250197490A1 (HBM ALPHA THERAPEUTICS, published 2025)
Where a chain is given by its changes, count along the chain named. Several values for one entry are separate records, joined by “and”; a condition that tells them apart may be missing. Identical values can stand only once. Like-named read-outs stand apart in the source and are kept apart here.

Tests used:
[1] = biological target: T1, corticotropin-releasing hormone (CRH) peptide (human and mouse, UniProt P01143 145-185 (rat entry), not fully specified); assay: cell-based or functional assay
T1 peptide: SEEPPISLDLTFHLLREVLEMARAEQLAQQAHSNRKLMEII

[2] = biological target: T1, corticotropin-releasing hormone (CRH) …; assay: cell-based or functional assay

B1: PR302334-27 (antibody, human IgG1, kappa, V domains shown)
VH: EVQLVESGGGLVQPGGSLRLSCAASGFTFSTYAMSWVRQAPGKGLEWVASIRSGGTTYYPDSVKGRFTISRDNSKNSLYLQMNSLRAEDTAVYYCTRGIDWGQGTTVTVSS
VL: DIQMTQSSLSASVSLGDRVTITCKASQSVNNDVAWYQQKPGKAPRLLIYYASNRYTGVPSRFSGSGSGTDFTFTISSLQPEDLATYFCQQDYSSWTFGGGTKVEIKR
- hCRHR1-Luc 0.5 nM CRH IC50 [1]: 1.36 nM

B2: PR302341 (antibody, human IgG1, kappa, V domains shown)
VH: EVQLQQSGPELVKPGASVKMSCKASGYTFTDYFMKWVKQSHGESLEWIGVINPNNGDIFYNQKFKGKATLTVDKSSSTAFMQLNSLTSEDSAVYSCARGTDRALFAYWGQGTLVAVSA
VL: DVLMTQTPLSLPVSLGDQASISCRSGQSIVHSDGNTYLEWYLQRPGQSPRLLIYKVSNRFSGVPDRFSGSGSGTDFTLKISRVGAEDLGIYYCFQGSHIPWTFGGGTKLEVKR
- hCRHR1-Luc 0.5 nM CRH IC50 [2]: 0.139 nM and 0.231 nM

B3: PR302341-1 (antibody, human IgG1, kappa, V domains shown)
VH: B2 VH
VL: DVVMTQSPLSLPVTLGQPASISCRSGQSIVHSDGNTYLEWFQQRPGQSPRRLIYKVSNRFSGVPDRFSGSGSGTDFTLKISRVEAEDVGVYYCFQGSHIPWTFGGGTKVEIKR
- hCRHR1-Luc 0.5 nM CRH IC50 [2]: 0.397 nM

B4: PR302341-2 (antibody, human IgG1, kappa, V domains shown)
VH: B2 VH
VL: B3 VL with F41Y, R51L, V88L
- hCRHR1-Luc 0.5 nM CRH IC50 [2]: 0.168 nM

B5: PR302341-3 (antibody, human IgG1, kappa, V domains shown)
VH: B2 VH
VL: B3 VL with V2I, S7T, L11S, F41L, S48P, R51L, S72A
- hCRHR1-Luc 0.5 nM CRH IC50 [2]: 0.128 nM

B6: PR302341-4 (antibody, human IgG1, kappa, V domains shown)
VH: B2 VH
VL: B3 VL with S7T, L11S, F41Y, S48P, R51L, S72A, V88L
- hCRHR1-Luc 0.5 nM CRH IC50 [2]: 0.107 nM

B7: PR302341-5 (antibody, human IgG1, kappa, V domains shown)
VH: B2 VH
VL: B3 VL with V2I, S7T, P12S, L15P, F41Y, Q42L, R44K, R50Q, R51L
- hCRHR1-Luc 0.5 nM CRH IC50 [2]: 0.73 nM

B8: PR302341-6 (antibody, human IgG1, kappa, V domains shown)
VH: B2 VH
VL: B3 VL with S7T, P12S, L15P, F41Y, Q42L, R44K, R50Q, R51L, V88L
- hCRHR1-Luc 0.5 nM CRH IC50 [2]: 0.363 nM

B9: PR302341-13 (antibody, human IgG1, kappa, V domains shown)
VH: QVQLVQSGAEVKKPGASVKVSCKASGYTFTDYFMKWVRQAPGQGLEWMGVINPNNGDIFYNQKFKGRVTMTRDTSTSTVYMELSSLRSEDTAVYYCARGTDRALFAYWGQGTLVTVSS
VL: B2 VL
- hCRHR1-Luc 0.5 nM CRH IC50 [2]: 0.124 nM

B10: PR302341-19 (antibody, human IgG1, kappa, V domains shown)
VH: B9 VH
VL: B3 VL with F41Y, R51L, V88L
- hCRHR1-Luc 0.5 nM CRH IC50 [2]: 0.121 nM

B11: PR302341-14 (antibody, human IgG1, kappa, V domains shown)
VH: B9 VH with R72V, T74K, V79A
VL: B2 VL
- hCRHR1-Luc 0.5 nM CRH IC50 [2]: 0.075 nM

B12: PR302341-7 (antibody, human IgG1, kappa, V domains shown)
VH: B9 VH with R72V, T74K, V79A
VL: B3 VL
- hCRHR1-Luc 0.5 nM CRH IC50 [2]: 0.23 nM

B13: PR302341-8 (antibody, human IgG1, kappa, V domains shown)
VH: B9 VH with R72V, T74K, V79A
VL: B3 VL with F41Y, R51L, V88L
- hCRHR1-Luc 0.5 nM CRH IC50 [2]: 0.165 nM

B14: PR302341-9 (antibody, human IgG1, kappa, V domains shown)
VH: B9 VH with R72V, T74K, V79A
VL: B3 VL with V2I, S7T, L11S, F41L, S48P, R51L, S72A
- hCRHR1-Luc 0.5 nM CRH IC50 [2]: 0.234 nM

B15: PR302341-10 (antibody, human IgG1, kappa, V domains shown)
VH: B9 VH with R72V, T74K, V79A
VL: B3 VL with S7T, L11S, F41Y, S48P, R51L, S72A, V88L
- hCRHR1-Luc 0.5 nM CRH IC50 [2]: 0.11 nM

B16: PR302341-11 (antibody, human IgG1, kappa, V domains shown)
VH: B9 VH with R72V, T74K, V79A
VL: B3 VL with V2I, S7T, P12S, L15P, F41Y, Q42L, R44K, R50Q, R51L
- hCRHR1-Luc 0.5 nM CRH IC50 [2]: 0.467 nM

B17: PR302341-12 (antibody, human IgG1, kappa, V domains shown)
VH: B9 VH with R72V, T74K, V79A
VL: B3 VL with S7T, P12S, L15P, F41Y, Q42L, R44K, R50Q, R51L, V88L
- hCRHR1-Luc 0.5 nM CRH IC50 [2]: 0.25 nM

B18: PR302341-15 (antibody, human IgG1, kappa, V domains shown)
VH: B9 VH with G44R, M70I, T76A, V79A
VL: B2 VL
- hCRHR1-Luc 0.5 nM CRH IC50 [2]: 0.124 nM

B19: PR302341-20 (antibody, human IgG1, kappa, V domains shown)
VH: B9 VH with G44R, M70I, T76A, V79A
VL: B3 VL with F41Y, R51L, V88L
- hCRHR1-Luc 0.5 nM CRH IC50 [2]: 0.162 nM

B20: PR302341-16 (antibody, human IgG1, kappa, V domains shown)
VH: B9 VH with G44R, M70I, R72V, T74K, T76A, V79A
VL: B2 VL
- hCRHR1-Luc 0.5 nM CRH IC50 [2]: 0.225 nM

B21: PR302341-21 (antibody, human IgG1, kappa, V domains shown)
VH: B9 VH with G44R, M70I, R72V, T74K, T76A, V79A
VL: B3 VL with F41Y, R51L, V88L
- hCRHR1-Luc 0.5 nM CRH IC50 [2]: 0.177 nM

B22: PR302341-24 (antibody, human IgG1, kappa, V domains shown)
VH: B9 VH with G44R, M70I, R72V, T74K, T76A, V79A
VL: B3 VL with S7T, L11S, F41Y, S48P, R51L, S72A, V88L
- hCRHR1-Luc 0.5 nM CRH IC50 [2]: 0.192 nM

B23: PR302341-25 (antibody, human IgG1, kappa, V domains shown)
VH: B9 VH with G44R, M70I, R72V, T74K, T76A, V79A
VL: B3 VL with S7T, P12S, L15P, F41Y, Q42L, R44K, R50Q, R51L, V88L
- hCRHR1-Luc 0.5 nM CRH IC50 [2]: 0.711 nM

B24: PR302341-17 (antibody, human IgG1, kappa, V domains shown)
VH: B9 VH with T76I, V79A, S85R, E89D
VL: B2 VL
- hCRHR1-Luc 0.5 nM CRH IC50 [2]: 0.104 nM

B25: PR302341-22 (antibody, human IgG1, kappa, V domains shown)
VH: B9 VH with T76I, V79A, S85R, E89D
VL: B3 VL with F41Y, R51L, V88L
- hCRHR1-Luc 0.5 nM CRH IC50 [2]: 0.243 nM

B26: PR302341-18 (antibody, human IgG1, kappa, V domains shown)
VH: B9 VH with R72V, T74K, T76I, V79A, S85R, E89D
VL: B2 VL
- hCRHR1-Luc 0.5 nM CRH IC50 [2]: 0.169 nM

B27: PR302341-23 (antibody, human IgG1, kappa, V domains shown)
VH: B9 VH with R72V, T74K, T76I, V79A, S85R, E89D
VL: B3 VL with F41Y, R51L, V88L
- hCRHR1-Luc 0.5 nM CRH IC50 [2]: 0.043 nM

B28: PR302341-26 (antibody, human IgG1, kappa, V domains shown)
VH: B9 VH with R72V, T74K, T76I, V79A, S85R, E89D
VL: B3 VL with S7T, L11S, F41Y, S48P, R51L, S72A, V88L
- hCRHR1-Luc 0.5 nM CRH IC50 [2]: 0.273 nM

B29: PR302341-27 (antibody, human IgG1, kappa, V domains shown)
VH: B9 VH with R72V, T74K, T76I, V79A, S85R, E89D
VL: B3 VL with S7T, P12S, L15P, F41Y, Q42L, R44K, R50Q, R51L, V88L
- hCRHR1-Luc 0.5 nM CRH IC50 [2]: 0.518 nM

B30: PR302334-1 (antibody, human IgG1, kappa, V domains shown)
VH: EVKLVESGGGLVKPGGSLKLSCAASGFTFSTYAMSWVRQTPEKRLEWVASIRSGGTTYYPDSVKGRFTISRDNARNILYLQMSSLRSEDTAIYYCTRGIDWGQGTLVTVSA
VL: EIVMTQSPATLSVSPGERATLSCKASQSVNNDVAWYQQKPGQAPRLLIYYASNRYTGIPARFSGSGSGTEFTLTISSLQSEDFAVYYCQQDYSSWTFGGGTKVEIKR
- hCRHR1-Luc 0.5 nM CRH IC50 [1]: 0.624 nM

B31: PR302334-2 (antibody, human IgG1, kappa, V domains shown)
VH: B30 VH
VL: B30 VL with F83L, Y87F
- hCRHR1-Luc 0.5 nM CRH IC50 [1]: 0.597 nM

B32: PR302334-3 (antibody, human IgG1, kappa, V domains shown)
VH: B30 VH
VL: DIVMTQSPDSLAVSLGERATINCKASQSVNNDVAWYQQKPGQPPRLLIYYASNRYTGVPDRFSGSGSGTDFTLTISSLQAEDVAVYYCQQDYSSWTFGGGTKVEIKR
- hCRHR1-Luc 0.5 nM CRH IC50 [1]: 0.542 nM

B33: PR302334-4 (antibody, human IgG1, kappa, V domains shown)
VH: B30 VH
VL: B32 VL with V83L, Y87F
- hCRHR1-Luc 0.5 nM CRH IC50 [1]: 0.553 nM

B34: PR302334-5 (antibody, human IgG1, kappa, V domains shown)
VH: B30 VH
VL: B1 VL with L83I, F87Y
- hCRHR1-Luc 0.5 nM CRH IC50 [1]: 0.325 nM

B35: PR302334-6 (antibody, human IgG1, kappa, V domains shown)
VH: B30 VH
VL: B1 VL
- hCRHR1-Luc 0.5 nM CRH IC50 [1]: 0.404 nM

B36: PR302334-14 (antibody, human IgG1, kappa, V domains shown)
VH: B1 VH with S77T
VL: NIVMTQTPKFLLVSAGDRITITCKASQSVNNDVAWYQQKPGQSPKLLIYYASNRYTGVPDRFTGSGYGTDFTFTISTVQAEDLAVYFCQQDYSSWTFGGGTNLEIKR
- hCRHR1-Luc 0.5 nM CRH IC50 [1]: 0.468 nM

B37: PR302334-7 (antibody, human IgG1, kappa, V domains shown)
VH: B1 VH with S77T
VL: B30 VL
- hCRHR1-Luc 0.5 nM CRH IC50 [1]: 0.996 nM
